Data published in EP4682166A1 (Guangzhou Enmai Biotechnology Co., Ltd, dated 2026).

T1: NMI-flag overexpressed protein (293T cells transfected with the hNMI-flag plasmid) (human) (UniProt Q13287)
T1 sequence (looked up): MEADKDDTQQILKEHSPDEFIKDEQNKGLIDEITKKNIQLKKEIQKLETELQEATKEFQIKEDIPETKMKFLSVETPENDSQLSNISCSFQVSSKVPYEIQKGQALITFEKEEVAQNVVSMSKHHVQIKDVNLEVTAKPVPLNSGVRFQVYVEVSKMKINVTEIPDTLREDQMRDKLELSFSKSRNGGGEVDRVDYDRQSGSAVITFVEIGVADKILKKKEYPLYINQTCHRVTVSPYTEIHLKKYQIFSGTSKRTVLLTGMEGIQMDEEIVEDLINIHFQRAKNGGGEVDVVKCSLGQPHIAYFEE

T2: human NMI (N-myc Interacting protein) (human) (UniProt Q13287)
T2 sequence (looked up): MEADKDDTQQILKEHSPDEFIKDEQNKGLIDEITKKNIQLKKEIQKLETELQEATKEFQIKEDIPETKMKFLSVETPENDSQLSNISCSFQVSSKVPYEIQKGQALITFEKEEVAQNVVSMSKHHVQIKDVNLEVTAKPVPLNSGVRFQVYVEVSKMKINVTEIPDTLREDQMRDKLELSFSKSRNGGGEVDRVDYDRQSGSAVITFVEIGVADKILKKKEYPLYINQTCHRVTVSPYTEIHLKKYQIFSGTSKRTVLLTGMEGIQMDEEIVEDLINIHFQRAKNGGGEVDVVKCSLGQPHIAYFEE


Key:
[1] = molecular target: T1, NMI-flag overexpressed protein (293T cells transfected with the hNMI-flag plasmid) (human); assay: sandwich ELISA; detection 94C4-1-biotin; cell lysates of NMI-flag 293T, replicate 2
[2] = molecular target: T2, human NMI (N-myc Interacting protein) (human); assay: magnetic-bead chemiluminescent sandwich; capture 98G10 beads (1.0 mg 98G10), detection acridinium-B-8; hNMI 100 pg/ml
[3] = molecular target: T2, human NMI (N-myc Interacting protein) (human); assay: magnetic-bead chemiluminescent sandwich; capture 98G10 beads, detection acridinium-B-8 (2.0 mg B-8 labelled); hNMI 2000 pg/mL
[4] = molecular target: T2, human NMI (N-myc Interacting protein) (human); assay: magnetic-bead chemiluminescent sandwich, kit of Example 8-1; capture 98G10 beads, detection acridinium-B-8; series 2, hNMI 150 pg/mL
[5] = molecular target: T2, human NMI (N-myc Interacting protein) (human); assay: magnetic-bead chemiluminescent sandwich, kit of Example 8-1; capture 98G10 beads, detection acridinium-B-8; series 1, hNMI 6000 pg/mL
[6] = molecular target: T2, human NMI (N-myc Interacting protein) (human); assay: magnetic-bead chemiluminescent sandwich, kit of Example 8-1; capture 98G10 beads, detection acridinium-B-8; series 3, hNMI 1000 pg/mL
[7] = molecular target: T2, human NMI (N-myc Interacting protein) (human); assay: magnetic-bead chemiluminescent sandwich, kit of Example 8-1; capture 98G10 beads, detection acridinium-B-8; series 1, hNMI 16000 pg/mL
[8] = molecular target: T2, human NMI (N-myc Interacting protein) (human); assay: magnetic-bead chemiluminescent sandwich, kit of Example 8-1; capture 98G10 beads, detection acridinium-B-8; series 2, hNMI 10000 pg/mL
[9] = molecular target: T2, human NMI (N-myc Interacting protein) (human); assay: magnetic-bead chemiluminescent sandwich, kit of Example 8-1; capture 98G10 beads, detection acridinium-B-8; series 3, hNMI 10000 pg/mL

| Binder | OD450 [1] [OD450] | Signal value [2] | Signal value [3] | Signal value [4] | Signal value [5] | Signal value [6] | Signal value [7] | Signal value [8] | Signal value [9] |
| --- | --- | --- | --- | --- | --- | --- | --- | --- | --- |
| monoclonal antibody B-8 (antibody, V domains shown, Rabbit monoclonal antibody; also called B8-1) VH: QSLEESGGDLVKPGASLTLTCTASGFSFSSSYYMCWVRQAPGKGLEWIACIYAGSSGSTYYASWAKGRFTISKTSSTTVTLQMTSLTAADTATYFCAREYSYDDYGDFWGFNLWGPGTLVTVSS VL: ALVMTQTPSSVSAAVGGTVTINCQASQNIYTNLAWYQQKPGQPPKLLIYGASNLESGVPSRFKGSGSGTEYTLTISDLECDDAATYYCQSSLYSRIADRANAFGGGTEVVVK | 2.9 |  |  |  |  |  |  |  |  |
| acridinium ester-labeled monoclonal antibody B-8 (antibody, V domains shown, acridinium ester label on the antibody, site not stated) VH: QSLEESGGDLVKPGASLTLTCTASGFSFSSSYYMCWVRQAPGKGLEWIACIYAGSSGSTYYASWAKGRFTISKTSSTTVTLQMTSLTAADTATYFCAREYSYDDYGDFWGFNLWGPGTLVTVSS VL: ALVMTQTPSSVSAAVGGTVTINCQASQNIYTNLAWYQQKPGQPPKLLIYGASNLESGVPSRFKGSGSGTEYTLTISDLECDDAATYYCQSSLYSRIADRANAFGGGTEVVVK |  | 20400 | 234000 | 15500 | 414000 | 131000 | 1.21e+06 | 1.19e+06 | 1.48e+06 |
